In the DeepSol protein solubility set:

assay: soluble on expression in E. coli; label from the status in PepcDB or PDB records

Sequence | soluble on expression in E. coli
MPKSNPVTPNKQPSEDWNELLTEFRGKGGRALQKTFIRKLWAVQEDIIANANPSTLRCIFFAPALLICPEGIKLSAEILPKIGVGNGLILLEKLILKFNLTDTECQRYGEVFVTAWRNAYQEANFDLTEELETDVISVMCQHALYAHRPTCTKFQNVIAAFAHAKKLDKSVDEMVTRLLNGCLYRALDAPNYIVQSSAAEVFFNFYPLIGEDTEDMDRIMENQHRYMMDLLRSDVISIRSEATKHVLKAISEFWLLIPKNIVKELMGYIIDTVAKDTVVSVRVAVFEGLNEMAFVPACLTAFEYGLKCAVDPALQDKSERVRLAAYQIISRLKNHKFISVFDIITRDDAIAKLDLENVETCRRQLIPIMHICLPISKSLDEAYYRPRVNYMLGKSRLALLSYFRLLGPMKIIDASQASKLIEMFITWAYRYLRKKDGPPLPETAEGYKKARAYLECALILYMSCKGMLMSDGDGTSKAKCDQIFGKVVKEIFEKYANTPILGTATAISSVIPKDYLKSIANDVLARLEDDDVPPEAVEPFLESAIHFNPDSVFDSFDSGLNVLVNLYGTKQSKKKRRELEDPEDVLIMTLNRLKYLLQSHSTSNLIAMKDEYRTKVLDLLKKIDLIREGIEIRLAKEEGQEHTLSDDVLLSILEFRFILPFFAATNGSEDAADRNQTIESMKNLLLWFEKNISSQMATFGEHNQDFLIQLTSTFLNCVNVSLSAYDFKTRPVEFEDEEDNENRDPREENDAAKDQATVAEVISRIVKSFCNSSTPFEIFRPALRVGTTLCDESYSEVHHEMALLLRFIPKWMNKQCDLMEDDEENIFKNHREIVESLRQFHKRVSETDYWDEDSAKRMMHHFMLFSIVSASSKNDDEAYDDPRDEDYKPPHFISLALIKFILKEKSLTEDIIEEISTNYIPEDSKYFTAEEGELKTDEKLSKLAALSQLLRILERYSKFHGKLIKEAIDKCTTRVLDCFANASDLNTVAHHILNSLSSLLDVQLPDENRL | not soluble
MPKSNRRIVRARDSKGRFLPGKKAKSVASKSRSRSRSRSVVSRKTTRTNSLTRRRSSTKAPSSARQSRSRSRSRSRSRSKSRSTSSRRSRSRSARRVSFKRGRPASFAMKSPEEKTAAKKTAAKIILRVD | not soluble
MPLEASELKPTAGPLEASELKPTAGPLEASELKPTAGPLEASELKPTAGPLEASELKPTAGPLEASELKPTAGPLEASELKPTAGMKKNSYLLSCLAIAVSSACHAEVLTYPDPLGSSQSDFGGTGLLQMPNARIAPEGEFSVNYRDNDQYRFYSTSVALFPWLEGTIRYTDVRTRKYSQWEDFSGDQSYKDKSFDFKLRLWEEGYWLPQVAFGKRDIAGTGLFDGEYLVASKQAGPFDFTLGMAWGYAGNAGNITNPFCRVSDKYCHRAESHDAGDISFSDIFRGPASIFGGIEYQTPWNPLRLKLEYDGNNYQNDFAGKLPQASHFNVGAVYRAASWADLNLSYERGNTLMFGFTLRTNFNDLRPALRDTPKPAYQPAPESEGLQYTTVANQLTALKYNAGFDAPEIQLRDKTLYMSGQQYKYRDSREAVDRANRILVNNLPQGVEKISVTQKREHMAMVTTETDVASLRKQLAGTAPGQSEPLQQQRVEAEDLSAFGRGYRIREDRFSYSFNPTLSQSLGGPEDFYMFQLGLMSSARYWFTDHLLLDGGIFTNIYNNYDKFKSSLLPADSTLPRVRTHIRDYVRNDVYLNNLQANYFADLGNGFYGQVYGGYLETMYAGVGSELLYRPLDACWALGVDVNYVKQRDWDNMMRFTDYSTPTGFVTAYWNPPTLNGVLMKLSVGQYLAKDKGATIDVAKRFDSGVAVGVWAAISNVSKDDYGEGGFSKGFYISIPFDLMTIGPNRNRAVVSWTPLTRDGGQMLSRKYQLYPMTAEREVPVGQLEHHHHHH | not soluble
MPLRHWGMARGSKPVGDGAQPMAAMGGLKVLLHWAGPGGGEPWVTFSESSLTAEEVCIHIAHKVGITPPCFNLFALFDAQAQVWLPPNHILEIPRDASLMLYFRIRFYFRNWHGMNPREPAVYRCGPPGTEASSDQTAQGMQLLDPASFEYLFEQGKHEFVNDVASLWELSTEEEIHHFKNESLGMAFLHLCHLALRHGIPLEEVAKKTSFKDCIPRSFRRHIRQHSALTRLRLRNVFRRFLRDFQPGRLSQQMVMVKYLATLERLAPRFGTERVPVCHLRLLAQAEGEPCYIRDSGVAPTDPGPESAAGPPTHEVLVTGTGGIQWWPVEEEVNKEEGSSGSSGRNPQASLFGKKAKAHKAVGQPADRPREPLWAYFCDFRDITHVVLKEHCVSIHRQDNKCLELSLPSRAAALSFVSLVDGYFRLTADSSHYLCHEVAPPRLVMSIRDGIHGPLLEPFVQAKLRPEDGLYLIHWSTSHPYRLILTVAQRSQAPDGMQSLRLRKFPIEQQDGAFVLEGWGRSFPSVRELGAALQGCLLRAGDDCFSLRRCCLPQPGETSNLIIMRGARASPRTLNLSQLSFHRVDQKEITQLSHLGQGTRTNVYEGRLRVEGSGDPEEGKMDDEDPLVPGRDRGQELRVVLKVLDPSHHDIALAFYETASLMSQVSHTHLAFVHGVCVRGPENIMVTEYVEHGPLDVWLRRERGHVPMAWKMVVAQQLASALSYLENKNLVHGNVCGRNILLARLGLAEGTSPFIKLSDPGVGLGALSREERVERIPWLAPECLPGGANSLSTAMDKWGFGATLLEICFDGEAPLQSRSPSEKEHFYQRQHRLPEPSCPQLATLTSQCLTYEPTQRPSFRTILRDLTRLQPHNLADVLTVNPDSPASDPTVFHKRYLKKIRDLGEGHFGKVSLYCYDPTNDGTGEMVAVKALKADCGPQHRSGWKQEIDILRTLYHEHIIKYKGCCEDQGEKSLQLVMEYVPLGSLRDYLPRHSIGLAQLLLFAQQICEGMAYLHSQHYIHRDLAARNVLLDNDRLVKIGDFGLAKAVPEGHEYYRVREDGDSPVFWYAPECLKEYKFYYASDVWSFGVTLYELLTHCDSSQSPPTKFLELIGIAQGQMTVLRLTELLERGERLPRPDKCPCEVYHLMKNCWETEASFRPTFENLIPILKTVHEKYQGQAPSVFSVC | soluble
MPLTLTDRYRGSLLGLACGDALGTSVEFKPRGSFPPVTDLLGGGPFNLKAGQWTDDTSMALCLGESLLRKDGFDPADQMGRYLNWWQWGYLSATGECFDIGMTVRQALADYQEHGQPLAGSSDPQTAGNGSLMRLAPVVLFHYPDLAQVREFAGASSRTTHGAAEAIECCQLLAGLIAKALDGASKQQLQRLDAQGFRESKVAALAQGNYLDKTRDQIRGNGYCVDSLEAALWCFQHSDSYAEAVLAAANLGDDADTTAAIVGQLAGAFYGAQGIPPHWLAKLHMGEEIQAMADDLLAAARRRAPARPLHGSCLCKAVQYRVDRLDMPIGHCHCQTCRKAHAAAFASTAGVMREHFQWTQGQERLSTYESSPGKLRHFCSVCGSHLLAERPGQPHVILRVATLDDDPGQTPQVHIWTSHDVPWLADEALQRWPEWQPSRGLEHHHHHH | not soluble
MPLTPADVHNVAFSKPPIGKRGYNEDEVDQFLDLVEDTLAEIQEENDDLRQQIEELQSSPRAEGSKPAAAPAAVSSLDETKLRKEIEAKVAAEYRAKLADAQEATERAQAELKMAREEADSAKAAAKKAEEAARAAASAATKAQPVAAVAPVGTDGGSATADTHLQAAKVLSMAQEMADRLTAEADSNSKSMLSEARAAAEKQVSDAEAKAKTTLADARQKAEKQLADADARSKALVSDAEKKSAQTLSDANTRAEAQVRQAEEKANALQADAERKHTEIMATVKQQQNALESRISELRTFEREYRTRLKTLLQTQLDELESRGTSAPEDKNV | not soluble
MPNAGELASLMEENAMPKVVVRNFAISLDGYGAGPDQSLQNPLGVKGEELHQWAFKTRTFHRMFGKEGGSTGTDENFSEKSFENIGAWVLGRNMFGPVRGAWPDESWKGWWGEEPPYHVPVFVLTHHARPSFTMKGGTEFHFVTDGIEAALDRALTAANGKDVRIGGGVSTIRQYMAAGMIDELHLALAPVFLGKGEQLFEGLDLPALGYRCTGTVAGEGATHLIIEKV | not soluble
MPNILYKIDNQYPYFTKNEKKIAQFILNYPHKVVNMTSQEIANQLETSSTSIIRLSKKVTPGGFNELKTRLSKFLPKEVTQYNVELVDNESTISLKNKLHSRSKAAL | soluble
MPNPPAKEDTWAFGPIGSPFPDNPVKALGQQNMYVALWYKNGRPMHGRAWNNGGVIECSFPYNKSELTGVKDLGGQIQVLQYKGNHLSLGYWYNWIKYSDRFDKMDKGAEMLRCGDSFPILWSERPGGALLGYADNKTEIARFSHDGKVDEVSGSALANMLIIARELKGGPPYCECEECKSEPPKPIVRVTLNEWADFRCGDPWPTVGTPVRALGRSLDTLPGENPDQYVALWYQSGEPVMGRIWNDGGKIAACFGWGGHEYRQKIGSIQILYELPEAIRGFDYDWKPFPEAAQFGAKEWIPVHVDHHKGNISPAVLIVDGKEILGKADIRNERATIGYGGTEKVLVGPAVHSCMVLCRKAKPGCTID | soluble
MPNTIRLHRVLSAPPERVYRAFLDPLALAKWLPPEGFVCKVLEHDARVGGAYKMEFLAFASGQKHAFGGRYLELVPGERIRYTDRFDDAGLPGDMITTITLAPLSCGADLSIVQEGIPDAIPPENCYLGWQQSLKQLAALVEPDMPGLEHHHHHH | soluble
MPNTLKRLIPDPEVIKLQQLLSSNGYFEEIKPSHGLFDGITFDNAVLFQLQHIYKDGDPLKPDGVIGAKTWWALKNPSGEKQRNHLSASIPAGLTTKRHQLIELIIEEHSKPVFEVPDGSNRSPDIDGYWGNTGVIGLAWCCAFVSWVLKEVTDSYPIASTHHLGVQRMWRTAKRLNMTTEIPKPGDIFVQLFAGGKGHTGFVVAVTEDGETIYTCEGNCGNRLKIGKRSNNSELHFIDCLQDNQTLDFERMAFDVNSTIDNTTRLEHHHHHH | not soluble
MPPCPPQQNRNRLSQLPVGELGEMELTWQEIMSITELQGLNVPSETSFEPQAPTPYPGPLPPPTYCPCSIHPDAGFSLPPPSYELPASTPHVPELPYSYGNVAIPVSKPLTLSGLLNEPLPDHLALLDIGLPVGQPKPQEDPESDSGLSLNYSDAESLELEGMEAGRRRSEYADMYPVEYPYSLMPNSLAHPNYTLPPTETPLALESSSGPVRAKPAVRGEAGSRDERRALAMKIPFPTDKIVNLPVDDFNELLAQYPLTESQLALVRDIRRRGKNKVAAQNCRKRKLETIVQLERELERLSSERERLLRARGEADRTLEVMRQQLAELYHDIFQHLRDESGNSYSPEEYVLQQAADGAIFLVPRGTKMEATD | soluble
MPPKIAEVIQHDVCAACGACEAVCPIGAVTVKKAAEIRDPNDLSLYEKGAAFQVCEGCLTCSRICPVVDGFIENELLNVRKFFGAKSKDNAGSQDGGVTSGILKALFNKGEIDCAVGITRNENWEPEVVLLTSAEDVERTRGTKYTSDPVVAALREAFEKYDRIAVVGVPCQAHAARLIRENVNEKIVLIIGLLCMESFHHDVMLDKIIPEIMKVNVRDIVKMEFTKGKFWVYTKDGEVHSVPIKDIAKYARNPCHHCCDYTSVFADISVGSVGAPDGWNSVFIRTEIGEKYFDMVRDEMEIMEDPKPGLELVGKLIEMKRKGNAEHFQEVCKEFSFETGIRSETVLEHHHHHH | soluble
